The supplement of paper PMC9170038

Columns and labels:
MS2 coat protein [1] = experiment: apparent KD of MS2 coat protein, switch ON state; designed switch direction (-1 OFF switch, 1 ON switch): -1; higher = weaker reporter binding; settings: FMN input: 0 or 200 uM; Eterna round: R93 (includes R88 designs)
Summary of the method: (§1)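 Designed RNA switches were transcribed on-chip from Illumina sequencing clusters and titrated with SNAP-549-labelled MS2 coat protein in twofold steps from 0.7 or 1.5 nM up to 3 µM. Each step lasted 0.8–1.5 h at first and 10–20 min by the end, in 100 mM Tris-HCl pH 7.5, 80 mM KCl and 4 mM MgCl2, without or with constant ligand. Apparent KD is the median, for each design, of fits to normalised cluster binding curves.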

MS2 coat protein [2] = experiment: apparent KD of MS2 coat protein, switch OFF state (with FMN for OFF switches, without FMN for ON switches); designed switch direction (-1 OFF switch, 1 ON switch): -1; higher = weaker reporter binding; settings: FMN input: 0 or 200 uM; Eterna round: R93 (includes R88 designs)
Summary of the method: as §1

Sequence: AGAAAGUGAGGAUAUUCGGAUAGGAAAACGAAAACCUAUCCGAAGAAGGCACAUGAGGAUCACCCAUGUAAAGA [Mat - Exaclusion 4 - Eli mod - D39]
- apparent KD of MS2 coat protein (MS2 coat protein [1]): 39.6 nM
- apparent KD of MS2 coat protein (MS2 coat protein [2]): 54 nM

Sequence: AGAAUACAUGAGGAUCACCCAUGUGAGGAUAUGUAGAUAAAAAUAAAAUAAAAUAAAUACAGAAGGCACAAAAG [EX 1 May 19]
- apparent KD of MS2 coat protein (MS2 coat protein [1]): 61.3 nM
- apparent KD of MS2 coat protein (MS2 coat protein [2]): 59.7 nM

Sequence: AGACAUACAGGAUAUACAUAGGAAAAAAAAAAAAAAAUUCAACAUGAGGAUCACCCAUGUAGAAGGGUAUGUCA [Ex2 Design 172: Random 2]
- apparent KD of MS2 coat protein (MS2 coat protein [1]): 65.5 nM
- apparent KD of MS2 coat protein (MS2 coat protein [2]): 69.9 nM

Sequence: AGACAUACAGGAUAUACAUGGGAAAAAAAAAAAAAAAUUCUACAUGAGGAUCACCCAUGUAGAAGGGUAUGUCA [Ex2 Design 171: Random 1B]
- apparent KD of MS2 coat protein (MS2 coat protein [1]): 81.1 nM
- apparent KD of MS2 coat protein (MS2 coat protein [2]): 31.1 nM

Sequence: AGAGACAGAGGAUAUACAUGAGGAUCACCCAUGUAAAAGAAAGAAAAGGGAAAGAAAAGUAGAAGGCUGAGAGA [Ruby 66]
- apparent KD of MS2 coat protein (MS2 coat protein [1]): 23.6 nM
- apparent KD of MS2 coat protein (MS2 coat protein [2]): 25.4 nM

Sequence: AGAGAGAGAGGAUAUACAUGAGGAUCACCCAUGUAAAAGAAAGAAAAGGGAAAGAAAAGUAGAAGGCUCAGAGA [Ruby 65]
- apparent KD of MS2 coat protein (MS2 coat protein [1]): 31.6 nM
- apparent KD of MS2 coat protein (MS2 coat protein [2]): 53.5 nM

Sequence: AGAUAGUCAGGAUAUACGAACAAGAAAAAAGACGAGAACGGACAUGAGGAUCACCCAUGUAGAAGGGACUAGAA [Diamond 11]
- apparent KD of MS2 coat protein (MS2 coat protein [1]): 45 nM
- apparent KD of MS2 coat protein (MS2 coat protein [2]): 28.6 nM

Sequence: AGCAAGUCAGGAUAUACGAAUAAGACAAAAGACGUGAAGGGACAUGAGGAUCACCCAUGUAGAAGGGACAAGCA [LROPPY Exclusion 2 - v01_mod Fisker]
- apparent KD of MS2 coat protein (MS2 coat protein [1]): 80.9 nM
- apparent KD of MS2 coat protein (MS2 coat protein [2]): 60.5 nM

Sequence: AGCACGUCAGGAUAUACGAACACAAAGGGUAACAACAAGGGACAUGAGGAUCACCCAUGUAGAAGGGACAAGCA [Diamond 95]
- apparent KD of MS2 coat protein (MS2 coat protein [1]): 73.5 nM
- apparent KD of MS2 coat protein (MS2 coat protein [2]): 79.2 nM

Sequence: AGCGAGUAAGGAUAUCGGAAAGGACACGAAAGUGACAAAGACGAGAAGGUACAUGAGGAUCACCCAUGUAAAAA [milkweed 25]
- apparent KD of MS2 coat protein (MS2 coat protein [1]): 26.8 nM
- apparent KD of MS2 coat protein (MS2 coat protein [2]): 17.8 nM

Sequence: AGCUAGAGAGGAUAUACGUGAGUGAUAAAAGUCUGAUAACUACAUGAGGAUCACCCAUGUAGAAGGCUCUAGCA [Ex2 Design 166: Sub-opt 30]
- apparent KD of MS2 coat protein (MS2 coat protein [1]): 69.1 nM
- apparent KD of MS2 coat protein (MS2 coat protein [2]): 22.2 nM

Sequence: AGCUAGUCAGGAUAUACGAAAAUGAACGAAGCUGAGAAGGGACAUGAGGAUCACCCAUGUAGAAGGGACUAGCA [Diamond 34]
- apparent KD of MS2 coat protein (MS2 coat protein [1]): 47.7 nM
- apparent KD of MS2 coat protein (MS2 coat protein [2]): 137 nM

Sequence: AGCUAGUCAGGAUAUACGAAAAUGAUAGAAGACGUAAGGGAACAUGAGGAUCACCCAUGUAGAAGGGACUAGCA [Diamond 47]
- apparent KD of MS2 coat protein (MS2 coat protein [1]): 24.7 nM
- apparent KD of MS2 coat protein (MS2 coat protein [2]): 63.1 nM

Sequence: AGCUAGUCAGGAUAUACGAAAAUGUAAAAAGAAGUGAAGGGACAUGAGGAUCACCCAUGUAGAAGGGACUAGAA [74%, Web mod - With 4 less C's]
- apparent KD of MS2 coat protein (MS2 coat protein [1]): 58 nM
- apparent KD of MS2 coat protein (MS2 coat protein [2]): 116 nM

Sequence: AGCUAGUCAGGAUAUACGAAAAUGUCAGAAGACGUAAGGGAACAUGAGGAUCACCCAUGUAGAAGGGACUAGCA [Diamond 41]
- apparent KD of MS2 coat protein (MS2 coat protein [1]): 30.7 nM
- apparent KD of MS2 coat protein (MS2 coat protein [2]): 108 nM

Sequence: AGCUAGUCAGGAUAUACGAACAAGUCAAAAGACGAGAACGGACAUGAGGAUCACCCAUGUAGAAGGGACUAGCA [Diamond 7]
- apparent KD of MS2 coat protein (MS2 coat protein [1]): 16.1 nM
- apparent KD of MS2 coat protein (MS2 coat protein [2]): 13.6 nM

Sequence: AGCUAGUCAGGAUAUACGAACAUGUCAGGAGACGUGAAGGGACAUGAGGAUCACCCAUGUAGAAGGGACUAGCG [74%, Web mod - With 3 more G's]
- apparent KD of MS2 coat protein (MS2 coat protein [1]): 37.2 nM
- apparent KD of MS2 coat protein (MS2 coat protein [2]): 128 nM
